The target of one assay is T1, BoNT/F1 (UniProt A7GBG3 1-1278).
T1 sequence: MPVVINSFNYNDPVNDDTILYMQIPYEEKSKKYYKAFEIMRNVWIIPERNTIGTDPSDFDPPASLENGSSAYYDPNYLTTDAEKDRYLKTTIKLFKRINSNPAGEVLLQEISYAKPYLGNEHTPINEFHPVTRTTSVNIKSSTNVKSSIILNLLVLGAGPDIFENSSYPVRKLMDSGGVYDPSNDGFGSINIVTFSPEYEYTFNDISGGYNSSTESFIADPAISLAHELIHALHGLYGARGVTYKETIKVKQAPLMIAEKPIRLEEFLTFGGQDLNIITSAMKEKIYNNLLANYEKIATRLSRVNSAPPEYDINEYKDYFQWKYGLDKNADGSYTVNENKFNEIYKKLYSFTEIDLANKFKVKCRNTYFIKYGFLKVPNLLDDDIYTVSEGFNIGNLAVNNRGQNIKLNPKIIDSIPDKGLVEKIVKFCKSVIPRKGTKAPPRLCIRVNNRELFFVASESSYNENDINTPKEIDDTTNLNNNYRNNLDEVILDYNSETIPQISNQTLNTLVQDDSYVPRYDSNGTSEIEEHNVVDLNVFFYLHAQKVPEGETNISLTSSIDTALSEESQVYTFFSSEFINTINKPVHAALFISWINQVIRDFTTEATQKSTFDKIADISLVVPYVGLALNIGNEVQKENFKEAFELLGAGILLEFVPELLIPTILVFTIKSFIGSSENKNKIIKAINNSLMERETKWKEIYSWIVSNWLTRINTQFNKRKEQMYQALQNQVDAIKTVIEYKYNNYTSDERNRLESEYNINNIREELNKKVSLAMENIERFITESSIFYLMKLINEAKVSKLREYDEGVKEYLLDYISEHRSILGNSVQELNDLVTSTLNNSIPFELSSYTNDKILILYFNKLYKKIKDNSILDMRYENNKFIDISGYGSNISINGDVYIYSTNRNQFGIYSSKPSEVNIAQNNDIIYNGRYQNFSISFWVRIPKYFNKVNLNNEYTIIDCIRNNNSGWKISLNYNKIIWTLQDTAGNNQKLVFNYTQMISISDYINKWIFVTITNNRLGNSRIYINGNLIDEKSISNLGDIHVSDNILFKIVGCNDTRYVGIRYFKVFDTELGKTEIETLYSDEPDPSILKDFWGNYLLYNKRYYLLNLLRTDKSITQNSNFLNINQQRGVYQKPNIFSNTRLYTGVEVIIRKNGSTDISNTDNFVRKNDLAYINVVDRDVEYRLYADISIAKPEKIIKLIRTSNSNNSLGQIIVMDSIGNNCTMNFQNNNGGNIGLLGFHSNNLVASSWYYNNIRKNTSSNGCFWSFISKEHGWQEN
Kind of assay: KinExA, IgG. For orientation: Kinetic exclusion samples the free partner from a solution-phase mixture.

Assay [1] addresses Mosaic botulinum neurotoxin BoNT/DC (Clostridium botulinum). Kind of assay: KinExA flow fluorimetry, solution phase, IgG.
The target in assay [2] is T2, Botulinum neurotoxin serotype C (BoNT/C) (Clostridium botulinum, UniProt P18640 2-1291).
T2 sequence: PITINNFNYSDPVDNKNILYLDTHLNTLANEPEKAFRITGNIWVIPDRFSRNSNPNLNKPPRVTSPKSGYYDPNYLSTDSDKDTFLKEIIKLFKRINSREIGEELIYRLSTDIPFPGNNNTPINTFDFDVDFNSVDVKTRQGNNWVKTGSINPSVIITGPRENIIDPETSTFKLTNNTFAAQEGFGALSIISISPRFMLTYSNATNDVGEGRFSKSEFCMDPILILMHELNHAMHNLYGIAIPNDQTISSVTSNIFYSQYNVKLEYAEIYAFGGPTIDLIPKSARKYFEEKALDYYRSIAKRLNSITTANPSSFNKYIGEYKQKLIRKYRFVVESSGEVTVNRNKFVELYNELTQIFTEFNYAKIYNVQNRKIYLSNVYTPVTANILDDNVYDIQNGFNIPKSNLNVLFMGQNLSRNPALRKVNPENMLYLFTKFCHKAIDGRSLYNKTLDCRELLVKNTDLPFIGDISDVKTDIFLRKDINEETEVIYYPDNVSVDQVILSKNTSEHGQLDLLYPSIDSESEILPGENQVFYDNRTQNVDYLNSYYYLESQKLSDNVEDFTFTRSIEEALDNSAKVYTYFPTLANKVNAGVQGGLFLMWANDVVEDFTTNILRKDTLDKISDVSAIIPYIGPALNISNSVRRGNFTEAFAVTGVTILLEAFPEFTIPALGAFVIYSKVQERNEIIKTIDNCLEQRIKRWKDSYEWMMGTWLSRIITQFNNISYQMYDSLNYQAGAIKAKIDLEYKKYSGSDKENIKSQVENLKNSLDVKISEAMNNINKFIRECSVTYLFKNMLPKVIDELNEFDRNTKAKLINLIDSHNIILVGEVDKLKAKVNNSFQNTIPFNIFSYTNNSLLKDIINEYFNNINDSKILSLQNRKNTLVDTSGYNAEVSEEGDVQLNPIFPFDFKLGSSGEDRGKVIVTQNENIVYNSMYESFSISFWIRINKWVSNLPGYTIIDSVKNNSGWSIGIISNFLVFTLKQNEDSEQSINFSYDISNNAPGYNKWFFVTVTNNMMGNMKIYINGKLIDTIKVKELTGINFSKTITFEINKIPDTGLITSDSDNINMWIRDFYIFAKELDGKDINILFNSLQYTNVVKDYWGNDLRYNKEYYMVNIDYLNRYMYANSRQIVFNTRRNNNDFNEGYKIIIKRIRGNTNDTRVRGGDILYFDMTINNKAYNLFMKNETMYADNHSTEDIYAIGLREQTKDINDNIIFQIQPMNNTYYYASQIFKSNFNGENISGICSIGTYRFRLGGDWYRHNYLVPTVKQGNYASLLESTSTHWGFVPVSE
Kind of assay: KinExA flow fluorimetry, solution phase, IgG.

Assay [3] concerns the target T3, Botulinum neurotoxin serotype D (BoNT/D) (Clostridium botulinum, UniProt P19321 2-1276).
T3 sequence: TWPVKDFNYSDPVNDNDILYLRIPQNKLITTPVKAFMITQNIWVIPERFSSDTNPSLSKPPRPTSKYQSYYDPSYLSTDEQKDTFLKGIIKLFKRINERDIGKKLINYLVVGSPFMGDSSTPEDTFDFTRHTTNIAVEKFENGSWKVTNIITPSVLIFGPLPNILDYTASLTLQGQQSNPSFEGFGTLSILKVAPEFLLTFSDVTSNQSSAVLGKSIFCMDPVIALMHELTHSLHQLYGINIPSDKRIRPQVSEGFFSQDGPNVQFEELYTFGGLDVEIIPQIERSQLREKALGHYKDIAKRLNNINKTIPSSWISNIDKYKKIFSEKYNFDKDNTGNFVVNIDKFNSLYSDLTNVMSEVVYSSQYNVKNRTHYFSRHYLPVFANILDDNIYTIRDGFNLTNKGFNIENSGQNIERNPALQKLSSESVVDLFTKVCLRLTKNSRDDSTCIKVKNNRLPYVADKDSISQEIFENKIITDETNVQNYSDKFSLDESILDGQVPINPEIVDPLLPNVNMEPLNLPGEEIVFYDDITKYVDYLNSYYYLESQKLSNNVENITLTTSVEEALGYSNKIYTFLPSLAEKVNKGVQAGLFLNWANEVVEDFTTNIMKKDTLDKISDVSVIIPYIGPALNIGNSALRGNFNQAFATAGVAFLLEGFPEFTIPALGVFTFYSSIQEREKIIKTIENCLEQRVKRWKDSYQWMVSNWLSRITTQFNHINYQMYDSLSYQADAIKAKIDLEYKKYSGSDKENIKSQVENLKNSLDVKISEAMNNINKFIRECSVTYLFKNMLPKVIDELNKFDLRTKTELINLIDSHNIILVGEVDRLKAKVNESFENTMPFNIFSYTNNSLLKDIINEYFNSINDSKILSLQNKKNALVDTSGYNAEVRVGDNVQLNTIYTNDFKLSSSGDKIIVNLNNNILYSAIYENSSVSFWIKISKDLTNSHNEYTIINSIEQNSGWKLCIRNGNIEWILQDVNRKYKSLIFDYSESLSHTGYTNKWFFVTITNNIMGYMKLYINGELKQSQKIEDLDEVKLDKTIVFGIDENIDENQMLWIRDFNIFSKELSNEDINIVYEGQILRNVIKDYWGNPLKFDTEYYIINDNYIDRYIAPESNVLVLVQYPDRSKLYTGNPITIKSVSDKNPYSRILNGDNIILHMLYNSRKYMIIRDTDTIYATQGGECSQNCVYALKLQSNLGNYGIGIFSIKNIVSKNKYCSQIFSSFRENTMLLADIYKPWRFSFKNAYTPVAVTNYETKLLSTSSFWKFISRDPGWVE
Kind of assay: KinExA flow fluorimetry, solution phase, IgG.

The values below come from patent US20250230224A1 (University of California, published 2025).

B1: 6F5.4 IgG (antibody, V domains shown)
VH: EVQLVPSGGNLVQPGGSLRLSCAATGPIDYHWMTWVRQAPGQGLEWVANINLDGTEKFYVDSVKGRFTVSRDNRKSSVFLQMNNLRVDDTAVYYCARLQWGERDGWLSPWGQGTLVTVSS
VL: DIVMTQSPPSLSASVGDRVRLTCRASQSIGRSLNWYQQKPGKAPKLLIYDASALHSGVPSRFSGSGSGTDFTLTISGLQPEDFATYYCQQTNDLPVTFGGGTKLEIKR
One may read the Kd as the concentration at which binding is half-saturated. Read a high Kd as a looser complex. The molecule B1 showed a Kd with BoNT/F1 of 0.0149 nM.

B2: 4C4 IgG (antibody, V domains shown)
VH: QVQLVESGPGLVKPSQTLSLTCSVSGASINNSPYFWNWFRQFPGKGLEWIGYIYWSGSTNYNPSLKSRLAMSVDTSKNQFSLKLTSATAADTAVYYCARDQGGGTVVKENWFDPWGQGTLVTVSS
VL: DIVMTQSPSSLSASVGDRLTMTCQASQDIGKHLNWYQQKAGKPPKLLIYGASNLKTGVPSRFSAGVSWTDFTFTISNVQPEDVATYYCQQSYSTPPTFGQGTKVEIK
Consider B2, for which the Kd in assay [1] was 0.597 nM; in assay [2], 0.888 nM.

B3: 4C4.2 IgG (antibody, V domains shown)
VH: QVQLVESGPGLVKPSQTLSLTCSVSGASINNSPYFWNWFRQFPGKGLEWIGYIYWSGSTNYNPSLKSRLAMSVDTSKNQFSLKLTSATAADTAVYYCARDQGGGTVVKENWFDPWGQGTLVTVSS
VL: DIQMTQSPSTLSASVGDRVTITCRASQSIGTYLNWYQQKPGRAPTLLVSRTSNLHTGVPSRFSGDGSGSHFSLTIDSLQPEDFATYYCQQSHTSPVTFGQGTKVEIK
In the case of B3, the values for the Kd in assay [1], in assay [2] and in assay [3] were 0.126 nM, 0.035 nM and 0.254 nM, respectively.

B4: 4C4.4 IgG (antibody, V domains shown)
VH: QVQLQESGPGLVKPSQTLSLTCTVSGASISNSPYFWNWFRQFPGKGLEWIGYIYWSGSTNYNPSLKSRLAMSVDTSKNQFSLKLTSATAADTAVYYCARDQGGGTVVKENWFDPWGQGTLVTVSS
VL: DIVMTQSPSSLSASVGDRLTMTCQASQDIGKHLNWYQQKAGKPPKLLIYGASNLKTGVPSRFSAGVSWTDFTFTISNVQPEDVATYYCQQSYSTPPTFGQGTKVEIKR
In assay [2], B4 displayed a Kd of 0.016 nM. In other words, the picomolar range.

B5: 4C4.1 IgG (antibody, V domains shown)
VH: QVQLVESGPGLVKPSQTLSLTCSVSGASINNSPYFWNWFRQFPGKGLEWIGYIYWSGSTNYNPSLKSRLAMSVDTSKNQFSLKLTSATAADTAVYYCARDQGGGTVVKENWFDPWGQGTLVTVSS
VL: ETTLTQSPSSLSASVGDRVSITCRASQSISNYLNWYQQKPGKAPKLLIYAASSLQSGVPSRFSGSGSGTDFTLTISSLQPEDFATYYCQQSYSDPPTFGQGTKVEIK
With B5, the equilibrium dissociation constant (Kd) stood at 0.058 nM in assay [1], 0.57 nM in assay [2] and 0.898 nM in assay [3].

B6: 8DC4.1 IgG (antibody, V domains shown)
VH: QVQLQESGPGLVKPSQTLSLTCTVSGGSISSDNYFWTWIRQSPGKGLEWLGHISYSGRSYTNLSLKRRLTISVDTSKNQFSLNLNSVTAADTAVYYCARERLPPGRGYDMDVWGQGTTVTVSS
VL: not shown
For the molecule B6, the dissociation constant Kd in assay [1], in assay [2] and in assay [3] was 1.4 nM throughout.

B7: 8DC4.4 IgG (antibody, V domains shown)
VH: QVQLQESGPGLVKPSQTLSLTCTVSGGSISSDNYFWTWIRQSPGKGLEWLGHISYSGRSYTNLSLKRRLTISVDTSKNQFSLNLNSVTAADTAVYYCARERLPPGRGYDMDVWGQGTTVTVSS
VL: DIVMTQSPSSVSASVGDRVTITCRASRDISIYLNWYQQKPGKAPKLLIYAASNLETGVPSRFSGSGSGTDFTLTISSLQPEDVATYYCQQSYNTPLTFGGGTKLEIKR
Regarding B7, the Kd came out at 0.136 nM in assay [2] and 0.157 nM in assay [3].

B8: Hu6F11 IgG (antibody, V domains shown)
VH: EVQLVESGGGLVKPGGSLRLSCAASGFTFSNYGMSWVRQAPGKGLEWVASISSGGSYIYYPDSVKGRFTISRDNAKNSLYLQMNSLRAEDTAVYYCARRKGYDSLYWYFDVWGQGTLVTVSS
VL: DVVMTQSPSSLSAFVGDRVTITCRASQGIRSYLAWFQQKPGKAPKLLIYAASTLQSGVPSRFSGSGSGTEFTLTVSGLQPEDFATYYCQQYNSYPLTFGGGTRLEIKR
With B8, in the assay with BoNT/F1, the Kd was 0.00071 nM.
